Numbering of substitutions follows the chain as printed. In names and notes the source's numbering stands.
T1: PUF4 RNA-binding domain (Saccharomyces cerevisiae, UniProt P25339 537-888)
T1 sequence: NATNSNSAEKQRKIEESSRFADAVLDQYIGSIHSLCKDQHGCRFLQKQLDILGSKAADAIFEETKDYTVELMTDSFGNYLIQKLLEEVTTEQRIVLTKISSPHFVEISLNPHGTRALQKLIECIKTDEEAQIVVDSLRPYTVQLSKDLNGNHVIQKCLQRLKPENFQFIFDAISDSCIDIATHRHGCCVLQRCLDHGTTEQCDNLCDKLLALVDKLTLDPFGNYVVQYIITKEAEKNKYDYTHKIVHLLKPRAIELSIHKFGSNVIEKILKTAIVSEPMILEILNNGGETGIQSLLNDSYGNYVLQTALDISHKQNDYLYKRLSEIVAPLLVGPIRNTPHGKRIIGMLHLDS

B1: Ib_S1_P3E.1_K3.1_C3.1_H3.1_[A4C]_A3.1_[A6T]_F3.1_T3.1 (ssRNA)
RNA: UCUCUUUGUCUUUAUCUCUU
B2: Ic_S2_P4E.1_K4.1_C4.1_H4.1_A4.1_[T5G]_[A6T]_F4.1_[A9G]_T4.1 (ssRNA)
RNA: UUUGAUUAAUAUGAUAUCGUUCUUUCUUGUAGUUUGUUCUUUCUCGAUAUCAUAUUAAUCUUU
B3: Ic_S2_P4E.1_K4.1_C4.1_H4.1_A4.1_[T5C]_[A6C]_[T7A]_F4.1_[A9C]_T4.1 (ssRNA)
RNA: B2 RNA with G32C, U33C, U34A, G36C
B4: Ic_S2_P4E.1_K4.1_C4.1_H4.1_A4.1_[T5C]_[A6C]_[T7G]_F4.1_[T8A]_[A9C]_T4.1 (ssRNA)
RNA: B2 RNA with G32C, U33C, U34G, U35A, G36C
B5: Ic_S2_P4E.1_K4.1_C4.1_H4.1_A4.1_[T5C]_[A6G]_[T7G]_F4.1_[A9T]_T4.1 (ssRNA)
RNA: B2 RNA with G32C, U33G, U34G, G36U
B6: Ic_S2_P4E.1_K4.1_C4.1_H4.1_A4.1_[T5C]_[A6C]_[T7C]_F4.1_[A9T]_T4.1 (ssRNA)
RNA: B2 RNA with G32C, U33C, U34C, G36U
B7: Ic_S2_P4E.1_K4.1_C4.1_H4.1_A4.1_[T5C]_[A6G]_F4.1_[A9G]_T4.1 (ssRNA)
RNA: B2 RNA with G32C, U33G
B8: Ic_S2_P4E.1_K4.1_C4.1_H4.1_A4.1_[T5C]_[A6G]_[T7C]_F4.1_[A9G]_T4.1 (ssRNA)
RNA: B2 RNA with G32C, U33G, U34C
B9: Ic_S2_P4E.1_K4.1_C4.1_H4.1_A4.1_[T5C]_[A6G]_[T7A]_F4.1_[T8C]_T4.1 (ssRNA)
RNA: B2 RNA with G32C, U33G, U34A, U35C, G36A
B10: Ic_S2_P4E.1_K4.1_C4.1_H4.1_A4.1_[T5C]_[A6C]_F4.1_[T8G]_[A9T]_T4.1 (ssRNA)
RNA: B2 RNA with G32C, U33C, U35G, G36U
B11: Ic_S2_P4E.1_K4.1_C4.1_H4.1_A4.1_[T5C]_[A6C]_F4.1_[T8C]_[A9C]_T4.1 (ssRNA)
RNA: B2 RNA with G32C, U33C, U35C, G36C
B12: Ic_S2_P4E.1_K4.1_C4.1_H4.1_A4.1_[T5C]_[A6C]_F4.1_[T8C]_T4.1 (ssRNA)
RNA: B2 RNA with G32C, U33C, U35C, G36A
B13: Ic_S2_P4E.1_K4.1_C4.1_H4.1_A4.1_[T5C]_[A6G]_F4.1_[A9T]_T4.1 (ssRNA)
RNA: B2 RNA with G32C, U33G, G36U
B14: Ic_S2_P4E.1_K4.1_C4.1_H4.1_A4.1_[T5C]_[A6G]_F4.1_[T8C]_T4.1 (ssRNA)
RNA: B2 RNA with G32C, U33G, U35C, G36A
B15: Ic_S2_P4E.1_K4.1_C4.1_H4.1_A4.1_[T5C]_[A6G]_[T7C]_F4.1_[T8C]_[A9G]_T4.1 (ssRNA)
RNA: B2 RNA with G32C, U33G, U34C, U35C
B16: Ic_S2_P4E.1_K4.1_C4.1_H4.1_A4.1_[T5C]_[A6C]_[T7C]_F4.1_T4.1 (ssRNA)
RNA: B2 RNA with G32C, U33C, U34C, G36A
B17: Ic_S2_P4E.1_K4.1_C4.1_H4.1_A4.1_[T5C]_[A6C]_[T7A]_F4.1_[T8A]_[A9T]_T4.1 (ssRNA)
RNA: B2 RNA with G32C, U33C, U34A, U35A, G36U
B18: Ic_S2_P4E.1_K4.1_C4.1_H4.1_A4.1_[T5C]_[A6C]_[T7A]_F4.1_[A9G]_T4.1 (ssRNA)
RNA: B2 RNA with G32C, U33C, U34A
B19: Ic_S2_P4E.1_K4.1_C4.1_H4.1_A4.1_[T5C]_[A6C]_[T7G]_F4.1_[T8C]_[A9T]_T4.1 (ssRNA)
RNA: B2 RNA with G32C, U33C, U34G, U35C, G36U
B20: Ic_S2_P4E.1_K4.1_C4.1_H4.1_A4.1_[T5C]_[A6C]_[T7A]_F4.1_[T8C]_T4.1 (ssRNA)
RNA: B2 RNA with G32C, U33C, U34A, U35C, G36A
B21: Ic_S2_P4E.1_K4.1_C4.1_H4.1_A4.1_[T5C]_[A6C]_[T7C]_F4.1_[T8G]_[A9C]_T4.1 (ssRNA)
RNA: B2 RNA with G32C, U33C, U34C, U35G, G36C
B22: Ic_S2_P4E.1_K4.1_C4.1_H4.1_A4.1_[T5C]_[A6C]_[T7A]_F4.1_[T8G]_[A9T]_T4.1 (ssRNA)
RNA: B2 RNA with G32C, U33C, U34A, U35G, G36U
B23: Ic_S2_P4E.1_K4.1_C4.1_H4.1_A4.1_[T5C]_[A6G]_[T7C]_F4.1_[T8C]_[A9T]_T4.1 (ssRNA)
RNA: B2 RNA with G32C, U33G, U34C, U35C, G36U
B24: Ic_S2_P4E.1_K4.1_C4.1_H4.1_A4.1_[T5C]_[A6G]_[T7C]_F4.1_[T8C]_T4.1 (ssRNA)
RNA: B2 RNA with G32C, U33G, U34C, U35C, G36A
B25: Ic_S2_P4E.1_K4.1_C4.1_H4.1_A4.1_[T5C]_[A6C]_[T7A]_F4.1_[T8A]_[A9C]_T4.1 (ssRNA)
RNA: B2 RNA with G32C, U33C, U34A, U35A, G36C
B26: Ic_S2_P4E.1_K4.1_C4.1_H4.1_A4.1_[T5C]_[A6C]_[T7C]_F4.1_[T8A]_[A9T]_T4.1 (ssRNA)
RNA: B2 RNA with G32C, U33C, U34C, U35A, G36U
B27: Ic_S2_P4E.1_K4.1_C4.1_H4.1_A4.1_[T5C]_[A6C]_[T7C]_F4.1_[T8C]_[A9G]_T4.1 (ssRNA)
RNA: B2 RNA with G32C, U33C, U34C, U35C
B28: Ic_S2_P4E.1_K4.1_C4.1_H4.1_A4.1_[T5C]_[A6C]_[T7C]_F4.1_[A9G]_T4.1 (ssRNA)
RNA: B2 RNA with G32C, U33C, U34C
B29: Ic_S2_P4E.1_K4.1_C4.1_H4.1_A4.1_[T5C]_[A6G]_[T7C]_F4.1_[T8G]_[A9C]_T4.1 (ssRNA)
RNA: B2 RNA with G32C, U33G, U34C, U35G, G36C
B30: Ic_S2_P4E.1_K4.1_C4.1_H4.1_A4.1_[T5C]_[A6G]_[T7C]_F4.1_[T8G]_[A9T]_T4.1 (ssRNA)
RNA: B2 RNA with G32C, U33G, U34C, U35G, G36U
B31: Ic_S2_P4E.1_K4.1_C4.1_H4.1_A4.1_[T5C]_[A6C]_[T7C]_F4.1_[T8G]_[A9G]_T4.1 (ssRNA)
RNA: B2 RNA with G32C, U33C, U34C, U35G
B32: Ic_S2_P4E.1_K4.1_C4.1_H4.1_A4.1_[T5C]_[A6C]_[T7G]_F4.1_[T8C]_[A9C]_T4.1 (ssRNA)
RNA: B2 RNA with G32C, U33C, U34G, U35C, G36C
B33: Ic_S2_P4E.1_K4.1_C4.1_H4.1_A4.1_[T5C]_[A6G]_F4.1_[T8A]_T4.1 (ssRNA)
RNA: B2 RNA with G32C, U33G, U35A, G36A
B34: Ic_S2_P4E.1_K4.1_C4.1_H4.1_A4.1_[T5C]_[A6G]_[T7C]_F4.1_[A9C]_T4.1 (ssRNA)
RNA: B2 RNA with G32C, U33G, U34C, G36C
B35: Ic_S2_P4E.1_K4.1_C4.1_H4.1_A4.1_[T5C]_[A6C]_[T7C]_F4.1_[A9C]_T4.1 (ssRNA)
RNA: B2 RNA with G32C, U33C, U34C, G36C
B36: Ic_S2_P4E.1_K4.1_C4.1_H4.1_A4.1_[T5C]_[A6C]_F4.1_[T8C]_[A9G]_T4.1 (ssRNA)
RNA: B2 RNA with G32C, U33C, U35C
B37: Ic_S2_P4E.1_K4.1_C4.1_H4.1_A4.1_[T5C]_[A6G]_[T7G]_F4.1_[T8C]_[A9C]_T4.1 (ssRNA)
RNA: B2 RNA with G32C, U33G, U34G, U35C, G36C
B38: Ic_S2_P4E.1_K4.1_C4.1_H4.1_A4.1_[T5C]_[A6C]_[T7C]_F4.1_[T8C]_[A9T]_T4.1 (ssRNA)
RNA: B2 RNA with G32C, U33C, U34C, U35C, G36U
B39: Ic_S2_P4E.1_K4.1_C4.1_H4.1_A4.1_[T5C]_[A6G]_[T7C]_F4.1_[T8A]_[A9T]_T4.1 (ssRNA)
RNA: B2 RNA with G32C, U33G, U34C, U35A, G36U
B40: Ic_S2_P4E.1_K4.1_C4.1_H4.1_A4.1_[T5C]_[A6C]_F4.1_[T8C]_[A9T]_T4.1 (ssRNA)
RNA: B2 RNA with G32C, U33C, U35C, G36U
B41: Ic_S2_P4E.1_K4.1_C4.1_H4.1_A4.1_[T5C]_[A6C]_[T7A]_F4.1_[T8C]_[A9G]_T4.1 (ssRNA)
RNA: B2 RNA with G32C, U33C, U34A, U35C
B42: Ib_S1_P3E.1_K3.1_C3.1_H3.1_[A4G]_A3.1_[A6T]_F3.1_T3.1 (ssRNA)
RNA: UCUCUUUGUGUUUAUCUCUU
B43: Ia_S1_P4E.1_K4.1_C4.1_H4.1_A4.1_F4.1_[A9T]_T4.1 (ssRNA)
RNA: UCUCUUUGUAUAUUUUCUCUU
B44: Ib_S1_P3E.1_K3.1_C3.1_H3.1_[A4T]_A3.1_[A6G]_F3.1_T3.1 (ssRNA)
RNA: UCUCUUUGUUUGUAUCUCUU
B45: Ib_S1_P3E.1_K3.1_C3.1_H3.1_[A4G]_A3.1_[A6C]_F3.1_T3.1 (ssRNA)
RNA: UCUCUUUGUGUCUAUCUCUU

These binders were tested against T1, PUF4 RNA-binding domain (assay: Mg; RNA-MaP; 20 mM Na-HEPES pH 7.4, 30 mM KOAc, 0.75 mM MgCl2, 0.1% Tween-20, 5% glycerol, 0.1 mg/mL BSA, 2 mM DTT; 25 C; 0.0125-409.6 nM protein). Conditions: tags: N-His6-TEV cleaved; C-SNAP kept, Cy3B-labelled; label: tethered on chip by stalled RNA polymerase.

Binder	Kd
B1	> 2300 nM
B2	95.3 nM
B3	9.15 nM
B4	936 nM
B5	109 nM
B6	14.4 nM
B7	28.9 nM
B8	31.1 nM
B9	407 nM
B10	28.4 nM
B11	79.4 nM
B12	44.1 nM
B13	19.6 nM
B14	117 nM
B15	501 nM
B16	1.46 nM
B17	20.6 nM
B18	3.21 nM
B19	154 nM
B20	162 nM
B21	1580 nM
B22	171 nM
B23	81.6 nM

Binder	Kd
B24	22.8 nM
B25	712 nM
B26	81.4 nM
B27	595 nM
B28	20.2 nM
B29	573 nM
B30	332 nM
B31	844 nM
B32	736 nM
B33	125 nM
B34	28.3 nM
B35	24.5 nM
B36	54.9 nM
B37	830 nM
B38	96.8 nM
B39	235 nM
B40	29.7 nM
B41	271 nM
B42	549 nM
B43	4.51 nM
B44	133 nM
B45	983 nM
